Data: paper PMC8748766, “The catalytic activity of TCPTP is auto-regulated by its intrinsically disordered tail and activated by Integrin alpha-1” (Nature Communications, 2022)
Positions count from the first letter of the chain named. Numbers in names are those of the source.

Experiments:
[1] = molecular target: T1, TCPTPCAT (TCPTP catalytic domain, residues 1-302) (human, UniProt P17706-2 1-302); assay: NMR titration; 15N-labelled tail observed (2D [1H,15N] HSQC, 0.1 mM), unlabelled TCPTPCAT added in increasing amounts (1:0 to 1:20 tail:CAT); NMR buffer 20 mM HEPES pH 6.8, 150 mM NaCl, 0.5 mM TCEP, 90% H2O/10% D2O; 298 K or 283 K; details: both partners purified
T1 construct: T cell protein tyrosine phosphatase (TCPTP, PTPN2), human, TC45 isoform, catalytic domain residues 1-302, sub-cloned into pRP1B for all NMR experiments; (2H,15N)-labelled where it was the observed species, unlabelled where it was titrated into the labelled tail; also called T-Cell Protein Tyrosine Phosphatase catalytic domain; PTPN2 catalytic domain; source: E. coli BL21 (DE3) RIL, purified …
T1 sequence (looked up): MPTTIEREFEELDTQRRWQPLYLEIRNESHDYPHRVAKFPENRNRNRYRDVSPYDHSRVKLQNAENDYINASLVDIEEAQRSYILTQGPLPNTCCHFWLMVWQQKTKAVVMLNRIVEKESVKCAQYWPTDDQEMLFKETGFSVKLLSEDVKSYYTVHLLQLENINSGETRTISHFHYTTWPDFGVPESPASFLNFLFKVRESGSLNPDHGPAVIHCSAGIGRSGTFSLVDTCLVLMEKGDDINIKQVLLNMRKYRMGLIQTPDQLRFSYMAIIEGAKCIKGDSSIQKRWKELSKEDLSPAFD

[2] = molecular target: T2, TCPTPCAT (Homo sapiens, UniProt P17706); assay: NMR titration (2D HSQC/TROSY) binding to TCPTPCAT
T2 construct: TCPTP and TCPTPCAT (residue 1–314) against 2 phosphotyrosine peptides derived from EGFR; His6 (N, cleaved yes); made in house; host or cells: E. coli BL21 (DE3) RIL
T2 sequence (P17706 1-314 isoform P17706-2): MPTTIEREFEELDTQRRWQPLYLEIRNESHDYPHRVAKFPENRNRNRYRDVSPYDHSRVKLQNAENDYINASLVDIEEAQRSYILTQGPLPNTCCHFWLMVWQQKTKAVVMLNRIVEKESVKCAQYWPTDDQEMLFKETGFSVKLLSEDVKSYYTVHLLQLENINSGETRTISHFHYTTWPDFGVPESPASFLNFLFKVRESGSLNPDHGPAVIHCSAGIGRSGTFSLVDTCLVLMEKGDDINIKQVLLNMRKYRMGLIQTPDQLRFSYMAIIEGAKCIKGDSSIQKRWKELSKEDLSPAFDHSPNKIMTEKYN
Description: Polymerase chain reaction (PCR) fragments of TCPTP (residues: 1–387) TCPTPCAT (catalytic domain, residues: 1–288, 1–302 or 1–314), TCPTPTail (C-terminal tail, residues: 289–387 or 303–387) were amplified from full-length human TCPTP (TC45 isoform). TCPTP, TCPTPCAT (residues: 1–288, 1–314), and TCPTPTail (residues: 289–387) fragments were cloned into pMCSG7 including a N-terminal His6-tag using ligation-independent cloning. For all NMR experiments, the PCR fragments of TCPTP, TCPTPCAT (residues: 1–302) and TCPTPTail (residue: 303–387) were sub-cloned into pRP1B as previously described.
NMR data were collected on either Bruker NEO 600 MHz or 800 MHz spectrometers equipped with TCI HCN z-gradient cryoprobes at 298 K or 283 K. NMR measurements of TCPTP’s variant construct were recorded using (^1H,^15N)-, (^2H,^15N)-, (^1H,^15N,^13C), or (^2H,^15N,^13C)-labeled protein at a final concentration of 0.6 mM for backbone assignment or 0.1 mM for titration in NMR buffer and 90% H2O/10% D2O. The sequence-specific backbone assignments of TCPTP (residues 1–387), TCPTPCAT (residues 1–302), TCPTPTail (residues 303–387) and other variants were achieved using 3D triple resonance experiments including […], 3D HNCA, 3D HN(CO)CA, 3D HN(CO)CACB, and 3D HNCACB either as HSQC or TROSY variations. All NMR data were processed using TopSpin 4.0.5[44] and analyzed using either CARA (http://www.cara.nmr.ch) and/or CcpNMR[45].

[3] = molecular target: T3, TCPTP (full-length TCPTP, residues 1-387, TC45 isoform) (human, UniProt P17706-2 1-387); assay: cell-based or functional assay
T3 sequence (looked up): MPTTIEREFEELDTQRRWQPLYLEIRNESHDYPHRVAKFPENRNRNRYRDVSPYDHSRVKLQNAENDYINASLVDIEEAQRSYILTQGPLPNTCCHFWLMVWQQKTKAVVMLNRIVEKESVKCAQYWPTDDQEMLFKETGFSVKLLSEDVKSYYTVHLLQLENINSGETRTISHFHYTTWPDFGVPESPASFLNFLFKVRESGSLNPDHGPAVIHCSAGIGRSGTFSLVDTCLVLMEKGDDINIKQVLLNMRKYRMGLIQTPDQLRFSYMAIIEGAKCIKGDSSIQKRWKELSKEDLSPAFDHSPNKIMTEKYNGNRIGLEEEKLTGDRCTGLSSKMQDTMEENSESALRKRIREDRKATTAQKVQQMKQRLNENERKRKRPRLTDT

[4] = system: pEGFR peptide-2, derived from the EGFR's kinase domain activation loop; assay: Phosphatase kinetic analysis (Michaelis-Menten) of TCPTP constructs, pEGFR peptide-2 substrate; type: biochemical; details: mean ± SE, n = 9
Description: (§1) The rate of dephosphorylation of TCPTP and TCPTPCAT (residue 1–314) against 2 phosphotyrosine peptides derived from EGFR was monitored either with or without ITGA1 peptide (ITGA1_FCT & ITGA1_TR) in assay buffer (25 mM Hepes pH 7.4, 50 mM NaCl and 1 mM DTT). Lyophilized powder of all synthetic peptides was dissolved in assay buffer without DTT (phosphopeptides, 5 mM; ITGA1 peptides, 2 mM). For the kinetic analysis, the concentration of the enzyme was fixed at 1 nM while the substrate (phosphopeptides) concentration was varied from 2.5 μM to 160 μM in a total reaction volume of 200 μl. Effect of ITGA1 peptide on TCPTP & TCPTPCAT kinetics were assessed in saturated condition by adding an excess amount of ITGA1 peptide to the reaction mixture (ITGA1_TR = 1 μM; ITGA1_FCT = 25 μM). The reaction was incubated at 30 °C for 30 min and stopped by the addition of 30 μl phosphate reagent (phosphate colorimetric assay kit; Bio Vision) following the manufacturer’s instructions. Data were normalized and fitted using a nonlinear curve, and kinetics parameters (KM and kcat) were calculated from the Michaelis-Menten equation using Graph Pad Prism 9.0. All data points in the enzyme kinetics experiment were measured in triplicate, and the experiments were repeated three times.
Supplementary Table 2: Enzymatic activity assay (Michaelis-Menten analysis); substrate pEGFR peptide-2, derived from the EGFR’s kinase domain activation loop. Calculated kinetic parameter are presented as the mean of nine independent reactions (n=9; mean ± SE). Source data are provided as a Source Data file. kcat (s-1) Km (µM) kcat/Km (µM -1s-1)

[5] = system: pEGFR peptide-1, derived from the cytoplasmic tail of EGFR; assay: Phosphatase kinetic analysis (Michaelis-Menten) of TCPTP constructs, pEGFR peptide-1 substrate; type: biochemical; details: mean ± SE, n = 9 (TCPTPCAT, TCPTP) or 12 (TCPTPC-term, TCPTPL1)
Description: as §1

[6] = DiFMUP assay of TCPTP, TCPTPCAT, PTP1B and PTP1BCAT; type: biochemical; details: PTP1B (1–400) vs PTP1BCAT (1–321), DiFMUP, n = 6
Description: Activity of TCPTP, TCPTPCAT (residue 1–314) either with or without ITGA1 peptides (ITGA1_TR; 1:50 molar ratio, ITGA1_FCT; 1:1000 molar ratio), PTP1B (residue 1–400) and PTP1BCAT (residue 1–321) were assessed in assay buffer (25 mM Hepes pH 7.4, 50 mM NaCl, and 1 mM DTT). The assay was performed in black polystyrene flat bottom 96-well plate. The concentration of DiFMUP was fixed at 10 μM and protein concentration at 2.5 nM in total reaction volume of 100 μl. The emitted fluorescent signal at 455 nm was continuously recorded for 25 min using a Tecan Infinite M1000 pro microplate reader (Tecan i-control, 2.0.10.0).

[7] = pEGFR peptide-2 2.5-160 μM, 1 nM enzyme, pH 7.4, 30 °C 30 min

B1: TCPTP_(Tail) (C-terminal tail, residues 303-387) (domain or fragment, human, UniProt P17706-2 303-387, looked up)
chain: HSPNKIMTEKYNGNRIGLEEEKLTGDRCTGLSSKMQDTMEENSESALRKRIREDRKATTAQKVQQMKQRLNENERKRKRPRLTDT
notes: T cell protein tyrosine phosphatase (TCPTP, PTPN2), human, TC45 isoform, C-terminal tail residues 303-387, sub-cloned into pRP1B for all NMR experiments; also called TCPTP C-terminal tail; TCPTP IDR; source: E. coli BL21 (DE3) RIL, purified (His-trap, TEV cleavage, subtraction, heat step 80 °C 10 min, SEC)
binding result [1]: binds

B2: TCPTP_(TailRK) (N373R/E374K/N375R/E376K) (domain or fragment, human, UniProt P17706-2 303-387, looked up)
chain: B1 chain with N71R, E72K, N73R, E74K
notes: T cell protein tyrosine phosphatase (TCPTP, PTPN2), human, TC45 isoform, C-terminal tail with 373NENE376 changed to 373RKRK376; 15N-labelled when observed; also called TCPTP_(TaiRK); source: E. coli BL21 (DE3) RIL, purified (His-trap, TEV cleavage, subtraction, heat step 80 °C 10 min, SEC)
binding result [1]: binds

B3: TCPTPTailRK: TCPTPTail with N373R/E374K/N375R/E376K (protein)
chain: B1 chain with N71R, E72K, N73R, E74K
modifications: left off: His6, end not stated, cleaved
notes: TCPTPTail with N373R/E374K/N375R/E376K
NMR titration: interaction strength vs TCPTPTail ([2]; 2D [1H,15N] HSQC, reduction in peak intensities at lower ratio (1:10)): tighter interaction
NMR titration: CSPs in (2H,15N)-labeled TCPTPCAT ([2]; 2D [1H,15N] TROSY, unlabeled ligand added): Small, but clear chemical shift perturbations (CSPs) were readily identified

RPLKKKMEKRPLKKKMEK [ITGA1_TR (ITGA1 tandem repeat; 2x ITGA1_TCT)]
rate of dephosphorylation (EGFR phosphopeptides, DiFMUP) by TCPTP saturated with excess ITGA1 peptide (ITGA1_TR 1 μM), against TCPTP alone [3]: ~3 fold

B4: TCPTPCAT: TCPTP catalytic domain, residues 1–288, 1–302 (NMR) or 1–314 (activity, SAXS) (protein, UniProt P17706 1-314, looked up, fragment)
chain: T2 sequence (P17706 1-314 isoform P17706-2)
modifications: catalytic domain
Km [4, 7]: 34 ± 2.2 µM
kcat [4, 7]: 36.3 ± 0.9 s⁻¹
kcat/Km ([4]; pEGFR peptide-2): 1.1 ± 0.1 µM -1s-1
kcat ([5]; pEGFR peptide-1 2.5-160 μM, 1 nM enzyme, 25 mM Hepes pH 7.4, 50 mM NaCl, 1 mM DTT, 30 °C 30 min): 34.0 ± 0.9 s⁻¹
Km ([5]; pEGFR peptide-1 2.5-160 μM, 1 nM enzyme, pH 7.4, 30 °C 30 min): 24.8 ± 2 µM
kcat/Km ([5]; pEGFR peptide-1, pH 7.4, 30 °C): 1.4 ± 0.1 µM⁻¹ s⁻¹

B5: PTP1B: PTP1B (residue 1–400) (protein, UniProt P18031 1-400, looked up, fragment)
chain: MEMEKEFEQIDKSGSWAAIYQDIRHEASDFPCRVAKLPKNKNRNRYRDVSPFDHSRIKLHQEDNDYINASLIKMEEAQRSYILTQGPLPNTCGHFWEMVWEQKSRGVVMLNRVMEKGSLKCAQYWPQKEEKEMIFEDTNLKLTLISEDIKSYYTVRQLELENLTTQETREILHFHYTTWPDFGVPESPASFLNFLFKVRESGSLSPEHGPVVVHCSAGIGRSGTFCLADTCLLLMDKRKDPSSVDIKKVLLEMRKFRMGLIQTADQLRFSYLAVIEGAKFIMGDSSVQDQWKELSHEDLEPPPEHIPPPPRPPKRILEPHNGKCREFFPNHQWVKEETQEDKDCPIKEEKGSPLNAAPYGIESMSQDTEVRSRVVGGSLRGAQAASPAKGEPSLPEKDED
autoregulatory behavior of the C-terminal tail (activity vs catalytic domain) [6]: not observed

KIGFFKRPLKKKMEK [ITGA1_FCT (ITGA1 full cytoplasmic tail)]
rate of dephosphorylation (EGFR phosphopeptides, DiFMUP) by TCPTP saturated with excess ITGA1 peptide (ITGA1_FCT 25 μM), against TCPTP alone [3]: ~3 fold
